From patent publication US20250041435A1 (AstraZeneca / MedImmune, published 2025)
Numbering of substitutions follows the chain as printed.

T1: human STEAP2 (six-transmembrane epithelial antigen of prostate 2) (human, UniProt Q8NFT2 1-490)
T1 sequence: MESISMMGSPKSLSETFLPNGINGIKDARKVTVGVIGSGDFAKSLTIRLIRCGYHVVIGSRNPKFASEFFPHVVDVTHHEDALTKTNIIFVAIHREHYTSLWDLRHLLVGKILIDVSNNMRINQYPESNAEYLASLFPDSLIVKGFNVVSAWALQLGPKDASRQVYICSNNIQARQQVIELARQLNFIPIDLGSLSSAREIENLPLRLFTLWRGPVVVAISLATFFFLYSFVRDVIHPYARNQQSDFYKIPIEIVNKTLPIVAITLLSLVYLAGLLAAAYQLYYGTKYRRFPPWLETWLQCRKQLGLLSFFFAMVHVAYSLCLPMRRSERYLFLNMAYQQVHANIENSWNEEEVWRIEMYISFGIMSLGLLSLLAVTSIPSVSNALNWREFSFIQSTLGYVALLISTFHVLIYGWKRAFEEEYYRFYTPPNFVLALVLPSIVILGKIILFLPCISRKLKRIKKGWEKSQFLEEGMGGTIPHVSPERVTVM

B1: LO14 SG3932 DAR8 ADC (antibody, human IgG1, kappa, V domains shown)
VH: QVQLQQSGPGLVKPSQTLSLTCAISGDSVSRNSAVWNWIRQSPSRGLEWLGRTYYRSKWYNDYAPSVKSRITINPDTSKNQFSLQLNSVTPEDTAVYYCARGLRQNQFYYYMDVWGKGTTVTVSS
VL: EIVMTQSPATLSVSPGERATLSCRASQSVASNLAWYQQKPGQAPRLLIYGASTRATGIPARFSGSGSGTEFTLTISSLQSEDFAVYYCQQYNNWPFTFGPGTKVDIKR
modifications: SG3932 on native cysteines (DAR 8 per antibody); SG3932 (TOP1i, cleavable mal-PEG8-val-ala linker) on native cysteines through a thiosuccinimide linkage; DAR 8 per antibody
B2: 40A3-LO14 (antibody, human IgG1, kappa, V domains shown)
VH: B1 VH
VL: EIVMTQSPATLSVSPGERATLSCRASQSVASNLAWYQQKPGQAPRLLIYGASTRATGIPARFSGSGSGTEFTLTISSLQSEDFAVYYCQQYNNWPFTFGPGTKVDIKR
notes: also called 40A3GL-LO14; LO14 mAb
B3: LO11 SG3932 DAR8 ADC (antibody, human IgG1, kappa, V domains shown)
VH: B1 VH with R104L
VL: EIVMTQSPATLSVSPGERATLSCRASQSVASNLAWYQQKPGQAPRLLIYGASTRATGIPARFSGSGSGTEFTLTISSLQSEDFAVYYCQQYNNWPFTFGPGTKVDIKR
modifications: SG3932 on native cysteines (DAR 8 per antibody); SG3932 (TOP1i, cleavable mal-PEG8-val-ala linker) on native cysteines through a thiosuccinimide linkage; DAR 8 per antibody
B4: 40A3-LO11 (antibody, human IgG1, kappa, V domains shown)
VH: B1 VH with R104L
VL: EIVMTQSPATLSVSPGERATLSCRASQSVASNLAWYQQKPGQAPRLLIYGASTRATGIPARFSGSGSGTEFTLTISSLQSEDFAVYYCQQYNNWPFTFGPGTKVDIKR
notes: also called 40A3GL-LO11; LO11 mAb
B5: 40A3-LO12 (antibody, V domains shown)
VH: B1 VH with P65V
VL: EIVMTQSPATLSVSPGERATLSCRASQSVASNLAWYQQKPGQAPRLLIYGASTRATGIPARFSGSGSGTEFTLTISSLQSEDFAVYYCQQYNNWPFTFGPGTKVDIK
notes: Human IgG1 kappa
B6: 40A3-LO7 (antibody, V domains shown)
VH: B1 VH with P65V, R104L
VL: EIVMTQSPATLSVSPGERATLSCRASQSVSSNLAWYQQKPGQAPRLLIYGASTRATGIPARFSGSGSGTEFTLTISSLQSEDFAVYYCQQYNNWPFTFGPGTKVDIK
notes: Germlined, de-risked 40A3; Human IgG1 kappa; also called 40A3GL-LO7; STEAP2-3 VH / STEAP2-3 VL

Assays:
[1] = molecular target: T1, human STEAP2 (six-transmembrane …); experiment: cell-based or functional assay
[2] = molecular target: T1, human STEAP2 (six-transmembrane …); experiment: cell-based or functional assay; remark: listed apart in the source
[3] = molecular target: T1, human STEAP2 (six-transmembrane …); experiment: flow cytometry on LNCaP cells (endogenous human STEAP2), anti-human AF647 secondary
Description: (§1) The cell-binding assays were designed to assess the binding affinities for parental 40A3-LO7 and its affinity matured derivatives to both human and murine STEAP2. The binding of the anti-STEAP2 antibodies were detected using a fluorescently labelled anti-human secondary antibody and standard methods of flow cytometry.
(§2) Briefly, a seven point 3-fold serial dilutions of 5× antibodies (mAbs) was prepared in sterile filtered FACS Buffer (5% Heat Inactivated Fetal Bovine Serum in PBS pH 7.4). Ten microliters of the antibody dilutions were added into designated wells in a 96-well U-bottom clear plate. The evaluated cells lines were harvested using cold 0.25% Trypsin-EDTA, resuspended in maintenance media, pelleted, and counted. Cell density was adjusted to 2×10⁶ cells/ml and forty microliters of cells were seeded on top of the antibody dilutions and incubated for 30 minutes. Cells were washed and a solution containing a 1:400 dilution of anti-human secondary antibody and a 1:1000 dilution of DAPI. After another 30 minute incubation, cells were washed, and then transferred to the FACS instrument for analysis.

[4] = molecular target: T1, human STEAP2 (six-transmembrane …); experiment: cell-based binding (flow cytometry)
[5] = molecular target: T2, murine chimeric STEAP3-2 protein on AD293 cells (murine); experiment: flow cytometry on AD293 muSTEAP3-2 cells, anti-human secondary
T2 construct: Used to test cross-reactivity to mouse STEAP2; also called AD293 muSTEAP3-2; AD293 STEAP3-2
Description: as §1, §2

[6] = molecular target: T1, human STEAP2 (six-transmembrane …); experiment: flow cytometry on LNCaP cells (endogenous human STEAP2)
[7] = molecular target: T2, murine chimeric STEAP3-2 protein on …; experiment: flow cytometry on AD293 muSTEAP3-2 cells, fluorescent anti-human secondary antibody
Description: as §1, §2

Binder | In Vitro Potency (22Rv1), IC50 of cell viability (CellTiter-Glo) [1] | In Vitro Potency (C4-2), IC50 of cell viability (CellTiter-Glo) [1] | In Vitro Potency (LNCaP), IC50 of cell viability (CellTiter-Glo) [1] | IC50 of cell viability, LNCaP cells (CellTiter-Glo) [2] | EC50 [3] | EC50 [5] | EC50 [6] | further results
B1 | 4.53 nM | 2.23 nM | 0.22 nM | 0.3 nM |  |  |  | 
B2 |  |  |  |  | 1.67 nM | 0.97 nM |  | fold improvement in binding relative to 40A3-LO7 [4]: 26 fold
B3 | 32.1 nM | 16.5 nM | 1.7 nM | 2.78 nM |  |  |  | 
B4 |  |  |  |  | 2.38 nM | 5.78 nM |  | 
B5 |  |  |  |  |  |  | 1.72 nM | 
B6 |  |  |  |  |  |  | 43.3 nM | EC50 (read off the curve) [7]: ~5 µg/mL
